From the Human Domainome abundance scans (Beltran et al. 2025) come the findings set out here.

B1: Tumor protein p73, residues 487 to 549; numbered along this chain, O15350 (parent)
chain: YHADPSLVSFLTGLGCPNCIEYFTSQGLQSIYHLQNLTIEDLGALKIPEQYRMTIWRGLQDLK

± gives the uncertainty stated by the source.

In the data set the parent is B1. The data set is described as follows: abundance fitness (aPCA) (normalised: wild type 0, dead -1); higher = more abundant; growth selection in yeast, the domain comes from the species named. Particulars: Homo sapiens.
For the variant YHADPSLVSFLTGLGCPNCIEYFTSQGLQSIYHLQNLTIEDLGALKIPEQYRMGIWRGLQDLK [T54G], the abundance fitness is -0.074 ± 0.038.
With YHADPSLVSFLTGLGCPNCIEYFTSQGLQSIYHLQNLTIEDLGALKIPEQYRMFIWRGLQDLK [T54F] the figure was -0.362 ± 0.14.
Take YHADPSLVSFLTGLGCPNCIEYFTSQGLQSIYHLQNLTIEDLGALKIPEQYRMWIWRGLQDLK [T54W]: the abundance fitness was -0.142 ± 0.061.
Next, YHADPSLVSFLTGLGCPNCIEYFTSQGLQSIYHLQNLTIEDLGALKIPEQYRMIIWRGLQDLK [T54I]: 0.025 ± 0.062; YHADPSLVSFLTGLGCPNCIEYFTSQGLQSIYHLQNLTIEDLGALKIPEQYRMLIWRGLQDLK [T54L]: -0.01 ± 0.051.
With YHADPSLVSFLTGLGCPNCIEYFTSQGLQSIYHLQNLTIEDLGALKIPEQYRMQIWRGLQDLK [T54Q], the abundance fitness was determined as 0.028 ± 0.068.
With YHADPSLVSFLTGLGCPNCIEYFTSQGLQSIYHLQNLTIEDLGALKIPEQYRMHIWRGLQDLK [T54H] the figure was 0.071 ± 0.087.
YHADPSLVSFLTGLGCPNCIEYFTSQGLQSIYHLQNLTIEDLGALKIPEQYRMKIWRGLQDLK [T54K]: the abundance fitness came out at 0.06 ± 0.047.
With YHADPSLVSFLTGLGCPNCIEYFTSQGLQSIYHLQNLTIEDLGALKIPEQYRMVIWRGLQDLK [T54V] the figure was 0.088 ± 0.038.
For YHADPSLVSFLTGLGCPNCIEYFTSQGLQSIYHLQNLTIEDLGALKIPEQYRMSIWRGLQDLK [T54S], the abundance fitness is -0.042 ± 0.075.
Next, YHADPSLVSFLTGLGCPNCIEYFTSQGLQSIYHLQNLTIEDLGALKIPEQYRMTKWRGLQDLK [I55K]: -1.01 ± 0.14.
For YHADPSLVSFLTGLGCPNCIEYFTSQGLQSIYHLQNLTIEDLGALKIPEQYRMTPWRGLQDLK [I55P], the abundance fitness was -1.08 ± 0.16.
With YHADPSLVSFLTGLGCPNCIEYFTSQGLQSIYHLQNLTIEDLGALKIPEQYRMTAWRGLQDLK [I55A] the figure was -0.918 ± 0.11; with YHADPSLVSFLTGLGCPNCIEYFTSQGLQSIYHLQNLTIEDLGALKIPEQYRMTFWRGLQDLK [I55F], -0.601 ± 0.096; with YHADPSLVSFLTGLGCPNCIEYFTSQGLQSIYHLQNLTIEDLGALKIPEQYRMTTWRGLQDLK [I55T], -0.598 ± 0.077.
Next, YHADPSLVSFLTGLGCPNCIEYFTSQGLQSIYHLQNLTIEDLGALKIPEQYRMTRWRGLQDLK [I55R]: -0.807 ± 0.056; YHADPSLVSFLTGLGCPNCIEYFTSQGLQSIYHLQNLTIEDLGALKIPEQYRMTMWRGLQDLK [I55M]: -0.241 ± 0.057; YHADPSLVSFLTGLGCPNCIEYFTSQGLQSIYHLQNLTIEDLGALKIPEQYRMTWWRGLQDLK [I55W]: -0.923 ± 0.084.
As to YHADPSLVSFLTGLGCPNCIEYFTSQGLQSIYHLQNLTIEDLGALKIPEQYRMTLWRGLQDLK [I55L], the abundance fitness is -0.091 ± 0.039.
As to YHADPSLVSFLTGLGCPNCIEYFTSQGLQSIYHLQNLTIEDLGALKIPEQYRMTVWRGLQDLK [I55V], the abundance fitness was -0.041 ± 0.044.
Consider YHADPSLVSFLTGLGCPNCIEYFTSQGLQSIYHLQNLTIEDLGALKIPEQYRMTSWRGLQDLK [I55S], for which the abundance fitness is -0.881 ± 0.1.
Next, YHADPSLVSFLTGLGCPNCIEYFTSQGLQSIYHLQNLTIEDLGALKIPEQYRMTNWRGLQDLK [I55N]: -0.559 ± 0.35; YHADPSLVSFLTGLGCPNCIEYFTSQGLQSIYHLQNLTIEDLGALKIPEQYRMTCWRGLQDLK [I55C]: -0.459 ± 0.079; YHADPSLVSFLTGLGCPNCIEYFTSQGLQSIYHLQNLTIEDLGALKIPEQYRMTQWRGLQDLK [I55Q]: -0.5 ± 0.098.
With YHADPSLVSFLTGLGCPNCIEYFTSQGLQSIYHLQNLTIEDLGALKIPEQYRMTEWRGLQDLK [I55E] the figure was -0.869 ± 0.14; with YHADPSLVSFLTGLGCPNCIEYFTSQGLQSIYHLQNLTIEDLGALKIPEQYRMTIWFGLQDLK [R57F], 0.311 ± 0.39; with YHADPSLVSFLTGLGCPNCIEYFTSQGLQSIYHLQNLTIEDLGALKIPEQYRMTIWSGLQDLK [R57S], -0.114 ± 0.043.
For the variant YHADPSLVSFLTGLGCPNCIEYFTSQGLQSIYHLQNLTIEDLGALKIPEQYRMTIWLGLQDLK [R57L], the abundance fitness is -0.069 ± 0.038.
As for YHADPSLVSFLTGLGCPNCIEYFTSQGLQSIYHLQNLTIEDLGALKIPEQYRMTIWPGLQDLK [R57P], the abundance fitness was -0.625 ± 0.11.
With YHADPSLVSFLTGLGCPNCIEYFTSQGLQSIYHLQNLTIEDLGALKIPEQYRMTIWAGLQDLK [R57A] the figure was -0.068 ± 0.041; with YHADPSLVSFLTGLGCPNCIEYFTSQGLQSIYHLQNLTIEDLGALKIPEQYRMTIWQGLQDLK [R57Q], -0.036 ± 0.042; with YHADPSLVSFLTGLGCPNCIEYFTSQGLQSIYHLQNLTIEDLGALKIPEQYRMTIWTGLQDLK [R57T], 0.024 ± 0.054.
Consider YHADPSLVSFLTGLGCPNCIEYFTSQGLQSIYHLQNLTIEDLGALKIPEQYRMTIWVGLQDLK [R57V], for which the abundance fitness was -0.255 ± 0.051.
Consider YHADPSLVSFLTGLGCPNCIEYFTSQGLQSIYHLQNLTIEDLGALKIPEQYRMTIWYGLQDLK [R57Y], for which the abundance fitness is -0.023 ± 0.056.
With YHADPSLVSFLTGLGCPNCIEYFTSQGLQSIYHLQNLTIEDLGALKIPEQYRMTIWWGLQDLK [R57W] the figure was -0.114 ± 0.039; with YHADPSLVSFLTGLGCPNCIEYFTSQGLQSIYHLQNLTIEDLGALKIPEQYRMTIWKGLQDLK [R57K], -0.011 ± 0.048.
With YHADPSLVSFLTGLGCPNCIEYFTSQGLQSIYHLQNLTIEDLGALKIPEQYRMTIWIGLQDLK [R57I] the figure was -0.24 ± 0.2; with YHADPSLVSFLTGLGCPNCIEYFTSQGLQSIYHLQNLTIEDLGALKIPEQYRMTIWNGLQDLK [R57N], -0.134 ± 0.11.
With YHADPSLVSFLTGLGCPNCIEYFTSQGLQSIYHLQNLTIEDLGALKIPEQYRMTIWCGLQDLK [R57C] the figure was -0.192 ± 0.12.
As for YHADPSLVSFLTGLGCPNCIEYFTSQGLQSIYHLQNLTIEDLGALKIPEQYRMTIWDGLQDLK [R57D], the abundance fitness was determined as 0.011 ± 0.26.
As to YHADPSLVSFLTGLGCPNCIEYFTSQGLQSIYHLQNLTIEDLGALKIPEQYRMTIWGGLQDLK [R57G], the abundance fitness is -0.01 ± 0.046.
On to YHADPSLVSFLTGLGCPNCIEYFTSQGLQSIYHLQNLTIEDLGALKIPEQYRMTIWHGLQDLK [R57H], for which the abundance fitness is 0.012 ± 0.12.
Take YHADPSLVSFLTGLGCPNCIEYFTSQGLQSIYHLQNLTIEDLGALKIPEQYRMTIWEGLQDLK [R57E]: the abundance fitness is -0.058 ± 0.057.
